According to paper PMC4390240 (PLoS ONE, 2015):
“And” between values parts separate entries of the source, which are not always exact repeats. Equal entries are not always repeated.

How the values were obtained:
[1] = biological target: the molecule itself; assay: differential scanning calorimetry; oxidized dimer, 100 μM (heme unit), scan rate 1°C/min, 50 mM potassium phosphate buffer, pH 7.0; dimer to monomers
[2] = biological target: the molecule itself; assay: SEC; gel chromatography (Superdex 75) at 4°C in 50 mM potassium phosphate buffer, pH 7.0, after addition of 80% (v/v) ethanol to 1 mM oxidized monomeric protein, lyophilization and resolvation with buffer

B1: Pseudomonas aeruginosa cytochrome c 551, wild type (natural protein, UniProt P00099 23-104, looked up)
chain: EDPEVLFKNKGCVACHAIDTKMVGPAYKDVAAKFAGQAGAEAELAQRIKNGSQGVWGPIPMPPNAVSDDEAQTLAKWVLSQK
modifications: heme attached covalently to two Cys residues (heme-linked Cys12 and Cys15); His16 and Met61 coordinated to the heme iron; oxidized
notes: residues printed from Glu1; source: E. coli JCB387, purified (oxidized)
With B1 the “dH of dissociation of the dimer to monomers” value [1] was roughly 0 kcal/mol and the “stoichiometry N” value [2] was 2 and 3 and 4.
